Assay results as given in patent US8008542B2, “Compositions, cells, and plants that include BKI1, a negative regulator of BRI1-mediated BR signaling” (The Salk Institute for Biological Studies, priority 2007, dated 2011).

T1: endogenous BRI1 (Arabidopsis thaliana, UniProt O22476)
T1 construct: from tissue; host or cells: short-day grown seedlings of Col-0 transgenic plants expressing BKI1-FLAG
T1 sequence (O22476 24-1196): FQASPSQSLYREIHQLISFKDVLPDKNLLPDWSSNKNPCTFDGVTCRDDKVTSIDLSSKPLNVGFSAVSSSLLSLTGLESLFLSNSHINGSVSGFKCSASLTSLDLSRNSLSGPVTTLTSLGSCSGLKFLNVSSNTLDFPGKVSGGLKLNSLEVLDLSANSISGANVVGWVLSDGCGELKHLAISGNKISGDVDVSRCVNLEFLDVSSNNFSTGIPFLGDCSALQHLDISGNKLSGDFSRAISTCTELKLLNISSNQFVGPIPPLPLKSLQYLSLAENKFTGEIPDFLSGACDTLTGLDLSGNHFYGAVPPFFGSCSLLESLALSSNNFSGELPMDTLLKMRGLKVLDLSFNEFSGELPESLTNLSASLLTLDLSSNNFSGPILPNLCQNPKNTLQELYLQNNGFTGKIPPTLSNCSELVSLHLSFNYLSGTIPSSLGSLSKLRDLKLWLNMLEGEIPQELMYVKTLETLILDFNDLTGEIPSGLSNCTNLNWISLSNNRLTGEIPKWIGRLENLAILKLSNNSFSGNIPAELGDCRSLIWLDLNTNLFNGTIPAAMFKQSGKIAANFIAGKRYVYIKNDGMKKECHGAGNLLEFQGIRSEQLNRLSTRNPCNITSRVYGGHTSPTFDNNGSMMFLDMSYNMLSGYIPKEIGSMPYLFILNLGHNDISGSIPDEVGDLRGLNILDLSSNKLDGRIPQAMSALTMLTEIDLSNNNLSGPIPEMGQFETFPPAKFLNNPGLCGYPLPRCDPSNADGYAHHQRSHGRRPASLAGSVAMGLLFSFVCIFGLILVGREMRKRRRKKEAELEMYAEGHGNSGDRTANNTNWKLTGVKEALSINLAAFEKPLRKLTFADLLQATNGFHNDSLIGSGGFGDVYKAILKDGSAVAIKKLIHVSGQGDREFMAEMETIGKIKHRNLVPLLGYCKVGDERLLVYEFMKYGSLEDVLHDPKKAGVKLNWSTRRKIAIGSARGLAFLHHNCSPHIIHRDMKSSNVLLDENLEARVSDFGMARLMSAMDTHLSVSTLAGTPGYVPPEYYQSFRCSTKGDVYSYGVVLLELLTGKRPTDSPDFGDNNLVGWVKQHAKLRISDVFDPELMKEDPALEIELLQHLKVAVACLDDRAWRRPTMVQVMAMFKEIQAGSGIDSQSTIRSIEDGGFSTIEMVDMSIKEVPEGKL

T2: interaction between the kinase domains of BRI1 and BAK1 (Arabidopsis thaliana, UniProt O22476)
T2 construct: His (C); made in house; host or cells: BRI1-KD-HIS: TNT T7 coupled reticulocyte lysate (Promega)
T2 sequence (O22476 883-1158 limits assumed): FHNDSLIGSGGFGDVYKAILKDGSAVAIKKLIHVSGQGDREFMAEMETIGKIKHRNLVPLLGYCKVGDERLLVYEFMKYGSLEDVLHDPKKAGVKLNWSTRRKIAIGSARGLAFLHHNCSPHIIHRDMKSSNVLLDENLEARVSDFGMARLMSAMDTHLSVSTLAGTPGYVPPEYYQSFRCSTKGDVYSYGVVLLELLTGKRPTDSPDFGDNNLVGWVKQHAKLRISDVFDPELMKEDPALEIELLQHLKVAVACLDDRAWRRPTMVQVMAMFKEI

B1: BKI1-FLAG: BKI1 with three copies of FLAG fused at the C-terminal end (protein)
chain: METNLQQVKNSSQTFSEKQNPKQEASPSPISSTCSSPSHDFSFTISLQPLSSSSKHISPTLRSPSKTTSSYQQTDPFAVDLSPADEIFFHGHLLPLHLLSHLPVSPRTSTGSYNDGFTLPVKDILPDQPTNNNNNTENAITNISTEAKDDNTEDKAEGEIRVKTKPIKSFSLFGLSKWRKGFESNEREQEQQQQKIKKPMSLDLSHAVKKYIRMLFQKRGNGTQFWNRRQTSSYSFSSSLMGPNGNSKTMINGSYNKRDLIRGRRGELFSAPASMRTSPTNSGHLRVSTAGLSSSSGSTSSSSSDSTMEELQAAIQAAIAHCKNSSAVDRDDKVKDSDYKDDDDKVKLDYKDDDDKVKLDYKDDDDKVKL
B2: MBP-BKI1: BKI1-maltose binding protein fusion (N-terminal MBP) (protein)
chain: METNLQQVKNSSQTFSEKQNPKQEASPSPISSTCSSPSHDFSFTISLQPLSSSSKHISPTLRSPSKTTSSYQQTDPFAVDLSPADEIFFHGHLLPLHLLSHLPVSPRTSTGSYNDGFTLPVKDILPDQPTNNNNNTENAITNISTEAKDDNTEDKAEGEIRVKTKPIKSFSLFGLSKWRKGFESNEREQEQQQQKIKKPMSLDLSHAVKKYIRMLFQKRGNGTQFWNRRQTSSYSFSSSLMGPNGNSKTMINGSYNKRDLIRGRRGELFSAPASMRTSPTNSGHLRVSTAGLSSSSGSTSSSSSDSTMEELQAAIQAAIAHCKNSSAVDRDDKVKDS
modifications: left off: large carriers

Assays:
endogenous BRI1 = target: T1, endogenous BRI1; assay: Immunoprecipitation from BKI1-FLAG plants; type: binding; settings: immunoprecipitation with anti-FLAG
Method: Short-day grown seedlings of Col-0 and transgenic plants containing BKI1-FLAG were ground to a fine powder in liquid nitrogen, and solubilized with 2× extraction buffer (100 mM Tris-HCl pH 7.5, 300 mM NaCl, 2 mM EDTA, 1% Triton, 10% glycerol, and protease inhibitor). The extracts were centrifuged at 5,000×g for 10 min, and the resultant supernatant was then spun at 100,000×g for 90 min at 4° C. to remove membrane fractions. The supernatant was incubated with pre-washed anti-FLAG M2 agarose gel (Sigma) for three hours at 4° C., and the agarose gel was washed five times with TBS Buffer containing 0.02% Tween 20. The immunoprecipitates were eluted with 1×SDS sample buffer by boiling for 5 min, separated on a 4-20% Novex Tris-Glycine SDS-PAGE gel (Invitrogen), transferred to PVDF membrane (Millipore), and detected with either anti-BRI1 antibody for endogenous BRI1 or monoclonal anti-FLAG M2 (Sigma) for BKI1-FLAG. Signals were visualized using the Odyssey Infrared Imaging system (LI-COR Biosciences Inc.).

[1] = target: T2, interaction between the kinase domains of BRI1 and BAK1; assay: GST pull-down of 35S-BRI1-KD-HIS by GST-BAK1-KD in vitro; type: binding; settings: 10 μM of MBP-BKI1, five replicates, p=0.000013
Method: Seedlings were grown on MS medium containing 1 μM of BRZ220. The time of BL treatment is indicated. Top panels: BKI1-YFP; Lower panels: myriBKI1-YFP. […] Immunoblots with anti-GFP show levels of myriBKI1-YFP and BKI1-YFP. Bottom band: loading control. […] The total ^35S-Met labeled BRI1-KD-HIS co-precipitated by GST-BAK1-KD was defined as “1”. Five replicates were conducted. Error bars indicate standard error. 1, GST-BAK1-KD±35S-BRI1-KD-HIS; 2, GST-BAK1-KD+35S-BRI1-KD-HIS+10 μM of MBP; 3, GST-BAK1-KD+35S-BRI1-KD-HIS+10 μM of MBP-BKI1. […] Without BL, BRI1 kinase is kept in a basal state by both its own carboxyl terminal domain and by an interaction with BKI1. Brassinosteroid binding to the extracellular domain of BRI1 induces a conformational change of the kinase domain, leading to the phosphorylation of the C-terminal domain of BRI1 and BKI1, the dissociation of BKI1 from the plasma membrane, and the release of autoinhibition of BRI1. These events lead to the full activation of BRI1 and its association with BAK1 or other substrates. Plasma membrane-dissociated BKI1 may also regulate other unknown components in the brassinosteroid signaling cascade. BSU1 is a nuclear serine/threonine phosphatase involved in the dephosphorylation of BES1 (27). […]

Row | Molecule | interaction with endogenous BRI1 in vivo (endogenous BRI1) | inhibition of the interaction between the kinase domains of BRI1 and BAK1 [1]
1 | B1 | interacted | 
2 | B2 |  | approximately 62%
